The results in this text go back to publication PMC12524728, “Integrating Structural Bioinformatics and Functional Mechanisms of Sesquiterpene Synthases CARS and CADS in Lavandula angustifolia (Lavender)” (International Journal of Molecular Sciences, 2025).

Common to all, as to assay: enzyme kinetics, Hanes-Woolf plot
What all share (type): biochemical, Lavandula angustifolia
Details in all cases: Mg2+-dependent enzyme; assay conditions only in supplement

Series [1] concerns T1, CC(C)=CCC/C(C)=C/CC/C(C)=C/CO[P@@](=O)(O)OP(=O)(O)O.
T1 construct: C-terminal deletion of residues 529-555; host and tags only in supplement
The source says:
enzyme kinetics, Hanes-Woolf plot on ∆529–555 (CADS)

Series [2] concerns T2, CC(C)=CCC/C(C)=C/CC/C(C)=C/CO[P@@](=O)(O)OP(=O)(O)O.
T2 construct: C-terminal deletion of residues 522-548; host and tags only in supplement
The source says:
enzyme kinetics, Hanes-Woolf plot on ∆522–548 (CARS)

Substrate in series [3]: CC(C)=CCC/C(C)=C/CC/C(C)=C/CO[P@@](=O)(O)OP(=O)(O)O
The source says: enzyme kinetics, Hanes-Woolf plot on CARS (wild-type, full-length)

Substrate in series [4]: CC(C)=CCC/C(C)=C/CC/C(C)=C/CO[P@@](=O)(O)OP(=O)(O)O
The source says:
enzyme kinetics, Hanes-Woolf plot on ∆1–226 (CARS)
This is another data set of the same source.

Substrate in series [5]: CC(C)=CCC/C(C)=C/CC/C(C)=C/CO[P@@](=O)(O)OP(=O)(O)O
The source says: enzyme kinetics, Hanes-Woolf plot on CADS (wild-type, full-length)
This is another data set of the same source.

Substrate in series [6]: CC(C)=CCC/C(C)=C/CC/C(C)=C/CO[P@@](=O)(O)OP(=O)(O)O
The source says:
enzyme kinetics, Hanes-Woolf plot on ∆1–228 (CADS)
This is another data set of the same source.

As for “∆529–555 (CADS) (Lavandula angustifolia; DEL529-555)”, in series [1], the Km – broadly, the concentration of substrate that gives half-maximal velocity – worked out at 7.13 ± 0.29 µM and the catalytic constant (kcat) – broadly, the maximal rate divided by the concentration of active sites – came to 0.44 ± 0.00883 s⁻¹.
In the case of “∆522–548 (CARS) (Lavandula angustifolia; DEL522-548)”, in series [2], the Km was 4.96 ± 0.17 µM and the kcat came out at 0.391 ± 0.0115 s⁻¹.

B1: CARS (wild-type, full-length) (Lavandula angustifolia) (protein)
chain: MAAPISTNNVCSDDARPVTYHPNVWSDYFLRYTSELTEISVAKKEEHERQKEAIRNLLLQTRDDSTLKLELVDAIQRLGIGYHFEEEIHNSLRNIYDTNPIYNAEDDNLRVAALRFRLIRQQGFPAPCDVFRKFVDEEGEFKSWVSNDVEGLLNLYEASNFAVHGEEILEKALEFCSLRLEFLTQGMTNSLSMRVKEALKIPISKTLTRLGARKFMSMYQEDESHNETLLNFAKLDFNLVQKIHQKELNQITRWWKELDFGKNLPFARDRPVECYFWIVGVYFEPRYGIARTLLTKIIYLASVLDDIYDVYGTLAELTIFTQIIRRWDSDAMDQLPPYMRIYCKALFDVYVEMEEEMGKIRKSYAVEYAKKEMKRLAEMYFQEAQWAFSKYKPTMKEYLKVALISSGYMMMTINSLTTIEDLITEEEFNWILSEPRILRASLTITRLMDDLAGYGTEGKMSAVHYYMAENGVSEGEAFKEVSGIIKSAWKDVNAECVEPRAASTTILRCVVDFTRVIVLLYSDEDAYGNSQTKTKDLIKSVLVDPLII
notes: full-length, codon-optimised gene; monomer by DLS; host and tags only in supplement
Regarding B1, in series [3], the Michaelis constant (Km) came out at 11.34 ± 0.13 µM and the kcat was determined as 0.104 ± 0.00183 s⁻¹.

B2: ∆1–226 (CARS) (Lavandula angustifolia) (protein)
chain: ETLLNFAKLDFNLVQKIHQKELNQITRWWKELDFGKNLPFARDRPVECYFWIVGVYFEPRYGIARTLLTKIIYLASVLDDIYDVYGTLAELTIFTQIIRRWDSDAMDQLPPYMRIYCKALFDVYVEMEEEMGKIRKSYAVEYAKKEMKRLAEMYFQEAQWAFSKYKPTMKEYLKVALISSGYMMMTINSLTTIEDLITEEEFNWILSEPRILRASLTITRLMDDLAGYGTEGKMSAVHYYMAENGVSEGEAFKEVSGIIKSAWKDVNAECVEPRAASTTILRCVVDFTRVIVLLYSDEDAYGNSQTKTKDLIKSVLVDPLII
notes: N-terminal deletion of residues 1-226; host and tags only in supplement
On to B2, for which, in series [4], the Km was found to be 9.57 ± 0.24 µM and the kcat turned out to be 0.24 ± 0.00533 s⁻¹.

B3: CADS (wild-type, full-length) (Lavandula angustifolia) (protein)
chain: MATSAVVNCLGGVRPHTIRYEPNMWTHTFSNFSIDEQVQGEYAEEIEALKQEVRSMLTAATTCKEQLILIDTLERLGLSYHFETEIEQKLKEIILHINREEDASGGDCDLYTTSLGFRVIRQHQYHISCGVFEKYLDKDGKFEESLSSDTEGILSLYEAAHVRFRDETLLQEAARFSRHHLKGMEEVLESPLREKVQRALQHPLHRDIPIFYAHFFISNIYQKDDSRNELLLKLAKSNFMFLQNLYKEELSQLSRWWNKFDLKSKLPYARDRLVEAYIWGVGYHYEPRYAYVRRGLVIGIQIIAIMDDTYDNYATVDEAQLFTEMFERWSMDGIDGVPDYLKIAYHFVVSAFEDYERDAGKLGKQFAAPYFKQTIQQLARAYNQELKWVMGTQSMPSFQDYAKNSEITSCIYIMSASVFHGLESVTQETIDWLKNEPNFAVSTGMIGRYWDDIGSHERESRGGKMLTAVGCYMKQYGVSKKEAVRKFREQVEDLWKDVNKGYTAMTCMPRETAVLFLNYARMCDASYTENNDDGYTDPDFSKRKISALFLDPLVF
notes: as for B1
Turning to B3, in series [5], the Michaelis-Menten constant (Km) turned out to be 15.86 ± 0.21 µM and the kcat worked out at 0.0993 ± 0.00383 s⁻¹.

B4: ∆1–228 (CADS) (Lavandula angustifolia) (protein)
chain: ELLLKLAKSNFMFLQNLYKEELSQLSRWWNKFDLKSKLPYARDRLVEAYIWGVGYHYEPRYAYVRRGLVIGIQIIAIMDDTYDNYATVDEAQLFTEMFERWSMDGIDGVPDYLKIAYHFVVSAFEDYERDAGKLGKQFAAPYFKQTIQQLARAYNQELKWVMGTQSMPSFQDYAKNSEITSCIYIMSASVFHGLESVTQETIDWLKNEPNFAVSTGMIGRYWDDIGSHERESRGGKMLTAVGCYMKQYGVSKKEAVRKFREQVEDLWKDVNKGYTAMTCMPRETAVLFLNYARMCDASYTENNDDGYTDPDFSKRKISALFLDPLVF
notes: N-terminal deletion of residues 1-228; host and tags only in supplement
Regarding B4, in series [6], the Michaelis-Menten constant (Km) was 11.13 ± 0.37 µM and the catalytic constant (kcat) turned out to be 0.2937 ± 0.00233 s⁻¹.
